Results: patent US8101373B2, “β-galactosidase donor fragments” (Discoverx Corporation, priority 2007, dated 2012)
Values belong to the molecule of their own block, whether it stands above or below them.

Key:
Type in all cases: cell-based
CRTH2 = molecular target: T1, CRTH2 (Homo sapiens, UniProt Q9Y5Y4); experiment: PathHunter β-arrestin2-EA / GPCR-ED enzyme fragment complementation, CRTH2-ED fusion; settings: saturating ligand
T1 construct: The entire GPCR coding regions were cloned downstream of the CMV promoter and upstream of the ED; expressed in transfected cells; host or cells: HEK293 or CHOK1 cells, retroviral infection (pLNCX2)
T1 sequence (Q9Y5Y4 whole entry, species assumed, the tested form may be a part): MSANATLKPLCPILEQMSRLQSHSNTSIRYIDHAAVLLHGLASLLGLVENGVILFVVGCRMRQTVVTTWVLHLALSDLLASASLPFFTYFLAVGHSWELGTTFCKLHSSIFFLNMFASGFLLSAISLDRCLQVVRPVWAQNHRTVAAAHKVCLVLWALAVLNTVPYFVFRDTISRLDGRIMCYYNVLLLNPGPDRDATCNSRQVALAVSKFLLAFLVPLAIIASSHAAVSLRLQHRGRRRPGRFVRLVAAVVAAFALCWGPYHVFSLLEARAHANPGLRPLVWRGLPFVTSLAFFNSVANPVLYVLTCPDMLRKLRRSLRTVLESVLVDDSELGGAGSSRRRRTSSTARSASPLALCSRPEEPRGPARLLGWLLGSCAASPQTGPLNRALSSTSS
T1 sequence (P32121 whole entry partner, species assumed, the tested form may be a part): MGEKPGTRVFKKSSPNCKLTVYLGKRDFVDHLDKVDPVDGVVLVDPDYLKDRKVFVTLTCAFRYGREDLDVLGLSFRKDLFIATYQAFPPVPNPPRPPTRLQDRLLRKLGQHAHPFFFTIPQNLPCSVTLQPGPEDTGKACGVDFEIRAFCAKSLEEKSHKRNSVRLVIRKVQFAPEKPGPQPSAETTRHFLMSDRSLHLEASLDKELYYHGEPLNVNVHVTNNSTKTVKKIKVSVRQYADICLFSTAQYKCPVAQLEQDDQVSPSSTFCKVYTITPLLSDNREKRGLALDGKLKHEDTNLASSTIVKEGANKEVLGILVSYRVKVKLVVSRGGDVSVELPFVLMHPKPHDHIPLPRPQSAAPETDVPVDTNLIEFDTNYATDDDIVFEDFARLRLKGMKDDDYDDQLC
From the text: (§1) The following are the directions for performing the determinations of the response to inducing agents and comparing the prior art ED (pK1) to an ED of the subject invention (pK2):
(§2) The cells used were HEK293 and CHOK1 cells. Following substantially the procedures described in U.S. patent application Ser. No. 10/229,247, filed Aug. 27, 2002, and U.S. patent application Ser. No. 11/132,764 (Publication no. 2005/0287522), filed May 18, 2005, whose disclosures are specifically incorporated by reference, each of the cell lines was infected with retroviral constructs. The viral plasmid was the PLNCX2 vector from Clontech. The plasmid includes sufficient retroviral sequences to enable viral production in the appropriate packaging cell lines. The plasmid also includes the neomycin antibiotic resistance gene and a CMV promoter that is used to drive expression of the target ED fusion. […] The ED is fused at the intracellular terminus, i.e., C-terminus of the proteins.
(§3) Preparation of Detection Reagents—The detection reagents must be prepared as a working solution prior to use, and once prepared are stable for at least 24 hours at room temperature with no impact on assay performance. The detection reagents consist of the substrate and co-factors for chemiluminescence signal detection, as well as the reagents necessary for selective cell permeabilization. […]

SSTR4 = molecular target: T2, SSTR4 (Homo sapiens, UniProt P31391); experiment: PathHunter β-arrestin2-EA / GPCR-ED enzyme fragment complementation, SSTR4-ED fusion; settings: saturating ligand
T2 construct: The entire GPCR coding regions were cloned downstream of the CMV promoter and upstream of the ED; expressed in transfected cells; host or cells: HEK293 or CHOK1 cells, retroviral infection (pLNCX2)
T2 sequence (P31391 whole entry, species assumed, the tested form may be a part): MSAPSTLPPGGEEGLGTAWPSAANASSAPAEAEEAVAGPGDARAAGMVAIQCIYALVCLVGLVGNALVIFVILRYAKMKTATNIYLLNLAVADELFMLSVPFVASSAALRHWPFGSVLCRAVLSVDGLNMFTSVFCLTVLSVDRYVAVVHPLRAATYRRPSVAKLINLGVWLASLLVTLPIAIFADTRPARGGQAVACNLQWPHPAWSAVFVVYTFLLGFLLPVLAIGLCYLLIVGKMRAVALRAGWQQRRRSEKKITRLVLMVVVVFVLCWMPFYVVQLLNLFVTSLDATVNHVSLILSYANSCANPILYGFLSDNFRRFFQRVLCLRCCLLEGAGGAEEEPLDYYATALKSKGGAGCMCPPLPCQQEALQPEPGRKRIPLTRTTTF
T2 sequence (P32121 whole entry partner, species assumed, the tested form may be a part): as the sequence (P32121 whole entry partner, species assumed, the tested form may be a part) above
From the text: The cells used were HEK293 and CHOK1 cells. […] The viral plasmid was the PLNCX2 vector from Clontech. The plasmid includes sufficient retroviral sequences to enable viral production in the appropriate packaging cell lines. The plasmid also includes the neomycin antibiotic resistance gene and a CMV promoter that is used to drive expression of the target ED fusion. […] The ED is fused at the intracellular terminus, i.e., C-terminus of the proteins.
Preparation of Detection Reagents—The detection reagents must be prepared as a working solution prior to use, and once prepared are stable for at least 24 hours at room temperature with no impact on assay performance. The detection reagents consist of the substrate and co-factors for chemiluminescence signal detection, as well as the reagents necessary for selective cell permeabilization. Working solution is prepared by combining PathHunter™ Cell Assay Buffer (DiscoveRx, Inc., Fremont, Calif.), Galacton Star® and Emerald II® reagent to 25 μl of cells+compound. reagents (ABI, Bedford, Mass.) at a ratio of 19:1:5.
The fourth column indicates the fold induction for each of the constructs, where saturating conditions of the ligand were employed.

PTHR2 = molecular target: T3, PTHR2 (Homo sapiens, UniProt P49190); experiment: PathHunter β-arrestin2-EA / GPCR-ED enzyme fragment complementation, PTHR2-ED fusion; settings: PTHR2 fused to PK2 ED; saturating ligand
T3 construct: The entire GPCR coding regions were cloned downstream of the CMV promoter and upstream of the ED; expressed in transfected cells; host or cells: HEK293 or CHOK1 cells, retroviral infection (pLNCX2)
T3 sequence (P49190 25-550, species assumed): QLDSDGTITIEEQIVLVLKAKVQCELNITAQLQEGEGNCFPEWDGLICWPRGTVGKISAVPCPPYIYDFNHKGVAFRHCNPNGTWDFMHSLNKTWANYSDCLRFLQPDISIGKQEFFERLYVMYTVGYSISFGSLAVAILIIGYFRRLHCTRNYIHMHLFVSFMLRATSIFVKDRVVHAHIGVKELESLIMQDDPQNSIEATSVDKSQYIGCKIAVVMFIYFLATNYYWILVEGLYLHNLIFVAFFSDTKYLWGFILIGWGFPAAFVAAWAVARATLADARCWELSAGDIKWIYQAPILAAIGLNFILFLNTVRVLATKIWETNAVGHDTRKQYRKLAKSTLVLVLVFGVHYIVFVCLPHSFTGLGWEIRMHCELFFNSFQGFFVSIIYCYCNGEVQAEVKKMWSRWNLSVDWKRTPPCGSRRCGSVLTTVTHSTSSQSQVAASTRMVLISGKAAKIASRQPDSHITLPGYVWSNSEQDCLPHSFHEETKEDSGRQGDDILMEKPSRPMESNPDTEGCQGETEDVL
T3 sequence (P32121 whole entry partner, species assumed, the tested form may be a part): as the sequence (P32121 whole entry partner, species assumed, the tested form may be a part) above
From the text: as §1, §2
Preparation of Detection Reagents—The detection reagents must be prepared as a working solution prior to use, and once prepared are stable for at least 24 hours at room temperature with no impact on assay performance. The detection reagents consist of the substrate and co-factors for chemiluminescence signal detection, as well as the reagents necessary for selective cell permeabilization. Working solution is prepared by combining PathHunter™ Cell Assay Buffer (DiscoveRx, Inc., Fremont, Calif.), Galacton Star® and Emerald II® reagent […]. reagents (ABI, Bedford, Mass.) at a ratio of 19:1:5. Sufficient reagent is provided in each kit to perform the indicated number of assays in a 384-well, full-volume microplate assuming an addition of 12 μl of detection reagent per well or in a 96-well, full-volume microplate assuming an addition of 50 μl of detection reagent per well. […]

CCR6 = molecular target: T4, CCR6 (Homo sapiens, UniProt P51684); experiment: PathHunter β-arrestin2-EA / GPCR-ED enzyme fragment complementation, CCR6-ED fusion; settings: saturating ligand
T4 construct: The entire GPCR coding regions were cloned downstream of the CMV promoter and upstream of the ED; expressed in transfected cells; host or cells: HEK293 or CHOK1 cells, retroviral infection (pLNCX2)
T4 sequence (P51684 whole entry, the tested form may be a part): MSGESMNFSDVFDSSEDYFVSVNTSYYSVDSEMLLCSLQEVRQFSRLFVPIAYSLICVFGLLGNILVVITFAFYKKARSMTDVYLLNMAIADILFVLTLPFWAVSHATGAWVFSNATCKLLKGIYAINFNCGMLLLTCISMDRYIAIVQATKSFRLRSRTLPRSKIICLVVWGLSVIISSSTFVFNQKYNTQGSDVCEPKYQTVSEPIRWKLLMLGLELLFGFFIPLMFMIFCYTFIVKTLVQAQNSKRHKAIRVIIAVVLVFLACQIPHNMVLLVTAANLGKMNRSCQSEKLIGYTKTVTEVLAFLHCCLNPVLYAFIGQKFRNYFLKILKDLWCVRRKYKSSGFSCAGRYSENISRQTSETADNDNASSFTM
T4 sequence (P32121 whole entry partner, the tested form may be a part): as the sequence (P32121 whole entry partner, species assumed, the tested form may be a part) above
From the text: as §1, §2, §3

P2RY6 = molecular target: T5, P2RY6 (Homo sapiens, UniProt Q15077); experiment: PathHunter β-arrestin2-EA / GPCR-ED enzyme fragment complementation, P2RY6-ED fusion; settings: saturating ligand
T5 construct: The entire GPCR coding regions were cloned downstream of the CMV promoter and upstream of the ED; expressed in transfected cells; host or cells: HEK293 or CHOK1 cells, retroviral infection (pLNCX2)
T5 sequence (Q15077 whole entry, species assumed, the tested form may be a part): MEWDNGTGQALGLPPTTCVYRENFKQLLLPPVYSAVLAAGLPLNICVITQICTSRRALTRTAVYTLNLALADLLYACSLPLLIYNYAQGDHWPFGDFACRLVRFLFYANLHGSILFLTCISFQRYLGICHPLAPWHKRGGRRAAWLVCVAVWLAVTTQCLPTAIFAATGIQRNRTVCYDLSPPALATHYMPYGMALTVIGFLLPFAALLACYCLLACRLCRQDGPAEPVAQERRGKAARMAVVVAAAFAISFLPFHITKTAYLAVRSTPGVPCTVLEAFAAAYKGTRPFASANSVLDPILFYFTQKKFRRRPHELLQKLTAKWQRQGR
T5 sequence (P32121 whole entry partner, species assumed, the tested form may be a part): as the sequence (P32121 whole entry partner, species assumed, the tested form may be a part) above
From the text: as §1, §2, §3

CHRM2 = molecular target: T6, CHRM2 (Homo sapiens, UniProt P08172); experiment: PathHunter β-arrestin2-EA / GPCR-ED enzyme fragment complementation, CHRM2-ED fusion; settings: saturating ligand
T6 construct: The entire GPCR coding regions were cloned downstream of the CMV promoter and upstream of the ED; expressed in transfected cells; host or cells: HEK293 or CHOK1 cells, retroviral infection (pLNCX2)
T6 sequence (P08172 whole entry, species assumed, the tested form may be a part): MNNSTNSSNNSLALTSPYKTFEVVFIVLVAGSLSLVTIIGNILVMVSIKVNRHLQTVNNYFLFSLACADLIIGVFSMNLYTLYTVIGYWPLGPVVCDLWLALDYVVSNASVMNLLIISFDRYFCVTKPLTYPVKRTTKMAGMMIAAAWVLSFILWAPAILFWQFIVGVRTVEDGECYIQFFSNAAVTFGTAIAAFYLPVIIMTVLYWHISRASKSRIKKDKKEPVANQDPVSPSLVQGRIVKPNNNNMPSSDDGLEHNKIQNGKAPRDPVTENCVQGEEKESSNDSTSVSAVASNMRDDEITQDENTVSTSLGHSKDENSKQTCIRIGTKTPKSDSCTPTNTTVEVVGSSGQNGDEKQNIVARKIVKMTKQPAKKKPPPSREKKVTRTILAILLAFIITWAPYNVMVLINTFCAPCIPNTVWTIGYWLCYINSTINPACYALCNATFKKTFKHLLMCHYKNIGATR
T6 sequence (P32121 whole entry partner, species assumed, the tested form may be a part): as the sequence (P32121 whole entry partner, species assumed, the tested form may be a part) above
From the text: as §1, §2, §3

SALPR = molecular target: T7, SALPR (Homo sapiens, UniProt Q9NSD7); experiment: PathHunter β-arrestin2-EA / GPCR-ED enzyme fragment complementation, SALPR-ED fusion; settings: saturating ligand
T7 construct: The entire GPCR coding regions were cloned downstream of the CMV promoter and upstream of the ED; expressed in transfected cells; host or cells: HEK293 or CHOK1 cells, retroviral infection (pLNCX2)
T7 sequence (Q9NSD7 whole entry, species assumed, the tested form may be a part): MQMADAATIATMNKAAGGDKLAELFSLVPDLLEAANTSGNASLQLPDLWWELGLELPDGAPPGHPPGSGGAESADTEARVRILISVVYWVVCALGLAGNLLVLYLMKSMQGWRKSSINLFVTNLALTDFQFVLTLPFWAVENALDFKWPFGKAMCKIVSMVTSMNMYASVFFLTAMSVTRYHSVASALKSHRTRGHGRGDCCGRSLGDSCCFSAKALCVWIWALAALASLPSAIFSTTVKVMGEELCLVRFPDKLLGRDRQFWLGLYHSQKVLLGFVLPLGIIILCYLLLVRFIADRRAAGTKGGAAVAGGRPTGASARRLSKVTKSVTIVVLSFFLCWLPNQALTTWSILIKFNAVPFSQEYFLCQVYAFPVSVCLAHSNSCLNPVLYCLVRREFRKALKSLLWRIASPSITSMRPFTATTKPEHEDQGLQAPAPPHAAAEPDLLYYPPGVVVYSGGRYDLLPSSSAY
T7 sequence (P32121 whole entry partner, species assumed, the tested form may be a part): as the sequence (P32121 whole entry partner, species assumed, the tested form may be a part) above
From the text: as §1, §2, §3

CCR4 = molecular target: T8, CCR4 (Homo sapiens, UniProt P51679); experiment: PathHunter β-arrestin2-EA / GPCR-ED enzyme fragment complementation, CCR4-ED fusion; settings: saturating ligand
T8 construct: The entire GPCR coding regions were cloned downstream of the CMV promoter and upstream of the ED; expressed in transfected cells; host or cells: HEK293 or CHOK1 cells, retroviral infection (pLNCX2)
T8 sequence (P51679 whole entry, the tested form may be a part): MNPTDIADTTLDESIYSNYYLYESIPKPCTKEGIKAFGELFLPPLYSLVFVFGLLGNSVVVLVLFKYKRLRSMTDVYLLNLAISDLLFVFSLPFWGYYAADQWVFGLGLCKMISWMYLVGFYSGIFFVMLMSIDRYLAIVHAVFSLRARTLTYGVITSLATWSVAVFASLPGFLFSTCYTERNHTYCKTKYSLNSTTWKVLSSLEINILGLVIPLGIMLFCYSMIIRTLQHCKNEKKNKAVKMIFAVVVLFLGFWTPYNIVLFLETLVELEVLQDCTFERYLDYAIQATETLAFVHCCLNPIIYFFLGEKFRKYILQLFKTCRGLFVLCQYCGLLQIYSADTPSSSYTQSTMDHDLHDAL
T8 sequence (P32121 whole entry partner, the tested form may be a part): as the sequence (P32121 whole entry partner, species assumed, the tested form may be a part) above
From the text: as §1, §2, §3

Molecule: CCCCC[C@H](O)/C=C/[C@H]1C(=O)C[C@H](O)[C@@H]1C/C=C\CCCC(=O)O [Prostaglandin D2]
Fold induct. (CRTH2; CRTH2 fused to PK1 ED): none | Fold induct. (CRTH2; CRTH2 fused to PK2 ED): 2.6 fold

Molecule: COC(=O)[C@H](CCCN=C(N)N)NC(=O)CCCc1c(-c2ccccc2)[nH]c2c(F)cc(F)cc12 [L803,087]
Fold induct. (SSTR4; SSTR4 fused to PK1 ED): 1.8 fold | Fold induct. (SSTR4; SSTR4 fused to PK2 ED): 2.1 fold

Fold induct. (PTHR2): 72.9 fold
Molecule: PTH (1-34)

Molecule: TIP39
Fold induct. (PTHR2): 2.8 fold

Fold induct. (CCR6; CCR6 fused to PK1 ED): 1.4 fold | Fold induct. (CCR6; CCR6 fused to PK2 ED): 6.5 fold
Molecule: CCL20

Fold induct. (PTHR2): none
Molecule: PTHRP

Fold induct. (P2RY6; P2RY6 fused to PK1 ED): 1.3 fold | Fold induct. (P2RY6; P2RY6 fused to PK2 ED): 1.9 fold
Molecule: O=c1ccn([C@@H]2O[C@H](COP(=O)(O)OP(=O)(O)O)[C@@H](O)[C@H]2O)c(=O)[nH]1 [UDP]

Molecule: C[N+](C)(C)CC#CCN1CCCC1=O [Oxotremorine M]
Fold induct. (CHRM2; CHRM2 fused to PK2 ED): 6.1 fold

Molecule: O=C1CCCN1CC#CCN1CCCC1 [Oxotremorine]
Fold induct. (CHRM2; CHRM2 fused to PK1 ED): 1.6 fold

Fold induct. (SALPR; SALPR fused to PK1 ED): none | Fold induct. (SALPR; SALPR fused to PK2 ED): 1.8 fold
B1: Relaxin-3 (protein)
chain: RAAPYGVRLCGREFIRAVIFTCGGSRWRRSDILAHEAMGDTFPDADADEDSLAGELDEAMGSSEWLALTKSPQAFYRGRPSWQGTPGVLRGSRDVLAGLSSSCCKWGCSKSEISSLC
notes: ligand employed for SALPR

Fold induct. (CCR4; CCR4 fused to PK1 ED): 18.9 fold | Fold induct. (CCR4; CCR4 fused to PK2 ED): 3 fold
B2: CCL22 (protein)
chain: GPYGANMEDSVCCRDYVRYRLPLRVVKHFYWTSDSCPRPGVVLLTFRDKEICADPRVPWVKMILNKLSQ
notes: ligand employed for CCR4
